According to patent publication US20220002344A1 (CENTRE NATIONAL DE LA RECHERCHE SCIENTIFIQUE, published 2022):
Square brackets hold non-standard residues; d marks the D form. Ends that are not written are not given here. * marks the point of attachment. FITC = O=C1OC2(c3ccc(O)cc3Oc3cc(O)ccc32)c2ccc(NC(=S)*)cc21; Cha = N[C@@H](CC1CCCCC1)C(=O)O

B1: P116 (Py-P7), …haDLF-OH (peptide)
peptide: VDKGSYLPRPTPPRPIYNRNGPRQ[Cha]DLF-OH
modifications: N-terminus assumed
SMILES: CC[C@H](C)[C@H](NC(=O)[C@@H]1CCCN1C(=O)[C@H](CCCNC(=N)N)NC(=O)[C@@H]1CCCN1C(=O)[C@@H]1CCCN1C(=O)[C@@H](NC(=O)[C@@H]1CCCN1C(=O)[C@H](CCCNC(=N)N)NC(=O)[C@@H]1CCCN1C(=O)[C@H](CC(C)C)NC(=O)[C@H](Cc1ccc(O)cc1)NC(=O)[C@H](CO)NC(=O)CNC(=O)[C@H](CCCCN)NC(=O)[C@H](CC(=O)O)NC(=O)[C@@H](N)C(C)C)[C@@H](C)O)C(=O)N[C@@H](Cc1ccc(O)cc1)C(=O)N[C@@H](CC(N)=O)C(=O)N[C@@H](CCCNC(=N)N)C(=O)N[C@@H](CC(N)=O)C(=O)NCC(=O)N1CCC[C@H]1C(=O)N[C@@H](CCCNC(=N)N)C(=O)N[C@@H](CCC(N)=O)C(=O)N[C@@H](CC1CCCCC1)C(=O)N[C@@H](CC(=O)O)C(=O)N[C@@H](CC(C)C)C(=O)N[C@@H](Cc1ccccc1)C(=O)O
notes: Fusion of pyrrhocoricin, GPR linker and P7
B2: P7 (Ac-QChaDLF-OH) (peptide)
peptide: Ac-Q[Cha]DLF-OH
SMILES: CC(=O)N[C@@H](CCC(N)=O)C(=O)N[C@@H](CC1CCCCC1)C(=O)N[C@@H](CC(=O)O)C(=O)N[C@@H](CC(C)C)C(=O)N[C@@H](Cc1ccccc1)C(=O)O
notes: also called CA2 68; AcQXDLF
B3: CM1-76 (P7-Onc112), AcQChaDLF-GPR-Onc112-NH2 (peptide)
peptide: Ac-Q[Cha]DLFGPRVDKPPYLPRPRPPR[dR]IYN[dR]-NH2
SMILES: CC[C@H](C)[C@H](NC(=O)[C@@H](CCCNC(=N)N)NC(=O)[C@H](CCCNC(=N)N)NC(=O)[C@@H]1CCCN1C(=O)[C@@H]1CCCN1C(=O)[C@H](CCCNC(=N)N)NC(=O)[C@@H]1CCCN1C(=O)[C@H](CCCNC(=N)N)NC(=O)[C@@H]1CCCN1C(=O)[C@H](CC(C)C)NC(=O)[C@H](Cc1ccc(O)cc1)NC(=O)[C@@H]1CCCN1C(=O)[C@@H]1CCCN1C(=O)[C@H](CCCCN)NC(=O)[C@H](CC(=O)O)NC(=O)[C@@H](NC(=O)[C@H](CCCNC(=N)N)NC(=O)[C@@H]1CCCN1C(=O)CNC(=O)[C@H](Cc1ccccc1)NC(=O)[C@H](CC(C)C)NC(=O)[C@H](CC(=O)O)NC(=O)[C@H](CC1CCCCC1)NC(=O)[C@H](CCC(N)=O)NC(C)=O)C(C)C)C(=O)N[C@@H](Cc1ccc(O)cc1)C(=O)N[C@@H](CC(N)=O)C(=O)N[C@H](CCCNC(=N)N)C(N)=O
B4: P28 (Onc112), VDKPPYLPRPRPPRrIYNr-NH2 (peptide)
peptide: VDKPPYLPRPRPPR[dR]IYN[dR]-NH2
notes: also called CA3 28; CA3-28
B5: P30 (Onc112-P7), VDKPPYLPRPRPPRrIYNrNGPRQChaDLF-OH (peptide)
peptide: VDKPPYLPRPRPPR[dR]IYN[dR]NGPRQ[Cha]DLF-OH
notes: Fusion of Onc112 and P7; the printed Mw 3472.08 agrees with that N; also called CA3-30; Onc-P7
B6: P122 (FITC-Py), FITC-KVDKGSYLPRPTPPRPIYNRN-NH2 (peptide)
peptide: {FITC}-KVDKGSYLPRPTPPRPIYNRN-NH2
modifications: ends and bridges not checked
notes: also called FITC-K-Py; FITC-K-Pyr
B7: P72 (FITC-Py-P7Scr), FITC-…haFQLD-OH (peptide)
peptide: {FITC}-KVDKGSYLPRPTPPRPIYNRNGPR[Cha]FQLD-OH
notes: also called FITC-K-Py-P7Scr; CA4-72
B8: P120 (Onc112-P7Scr), VDKPPYLPRPRPPRrIYNrNGPRChaFQLD-OH (peptide)
peptide: VDKPPYLPRPRPPR[dR]IYN[dR]NGPR[Cha]FQLD-OH
notes: Control fusion peptide with scrambled P7; also called Onc112-Scr
B9: Py (Pyrrhocoricin), VDKGSYLPRPTPPRPIYNRN-NH2 (peptide)
peptide: VDKGSYLPRPTPPRPIYNRN-NH2
notes: Bought from Novopro; also called unglycosylated pyrrhocoricin
B10: P150 (FITC-Py-P7), FITC-…haDLF-OH (peptide)
peptide: {FITC}-KVDKGSYLPRPTPPRPIYNRNGPRQ[Cha]DLF-OH
notes: also called FITC-K-Py-P7; CA2-150

Key:
[1] = molecular target: T1, E. coli sliding clamp (DnaN protein, β subunit of DNA polymerase III) (E. coli, UniProt P0A988 1-366); experiment: ITC, 30 °C, peptide titrated into E. coli SC
T1 construct: Recombinant DnaN for ITC (a tag from pET15b is implied by the Ni-NTA step but not described); also called ^EcSC; SC
T1 sequence (P0A988 whole entry): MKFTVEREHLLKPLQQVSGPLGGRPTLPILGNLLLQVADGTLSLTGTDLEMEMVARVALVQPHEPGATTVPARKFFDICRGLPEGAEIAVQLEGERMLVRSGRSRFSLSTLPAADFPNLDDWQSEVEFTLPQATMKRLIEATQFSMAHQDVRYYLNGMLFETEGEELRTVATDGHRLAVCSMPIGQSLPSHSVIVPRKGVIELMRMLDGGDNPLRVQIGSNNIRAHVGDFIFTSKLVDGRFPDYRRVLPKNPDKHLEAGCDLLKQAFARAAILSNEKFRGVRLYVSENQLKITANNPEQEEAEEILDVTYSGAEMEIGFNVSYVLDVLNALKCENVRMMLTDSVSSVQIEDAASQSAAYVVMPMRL

[2] = molecular target: T2, E. coli 70S ribosome particle (E. coli); experiment: ITC, 30 °C, peptide titrated into E. coli 70S ribosome
T2 construct: also called ^Ec70S

[3] = molecular target: T2, E. coli 70S ribosome particle; experiment: ITC, 30 °C, against the same peptide on E. coli SC
[4] = molecular target: T3, Human PCNA (Proliferating Cell Nuclear Antigen) (Human, UniProt P12004 1-261); experiment: ITC, 30 °C
T3 construct: Source and limits of the construct are not described
T3 sequence (P12004 whole entry): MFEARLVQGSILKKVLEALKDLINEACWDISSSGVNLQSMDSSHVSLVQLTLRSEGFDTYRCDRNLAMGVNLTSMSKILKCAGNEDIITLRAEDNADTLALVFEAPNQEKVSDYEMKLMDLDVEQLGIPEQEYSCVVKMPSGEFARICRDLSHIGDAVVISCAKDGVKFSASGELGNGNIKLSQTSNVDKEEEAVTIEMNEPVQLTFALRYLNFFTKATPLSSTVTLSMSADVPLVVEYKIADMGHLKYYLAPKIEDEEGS

[5] = molecular target: T1, E. coli sliding clamp (DnaN protein, β …); experiment: ITC, 30 °C, E. coli SC
[6] = molecular target: T1, E. coli sliding clamp (DnaN protein, β …); experiment: ITC, 25 °C, E. coli SC (beta ring)
[7] = molecular target: T1, E. coli sliding clamp (DnaN protein, β …); experiment: ITC, 30 °C
[8] = molecular target: T2, E. coli 70S ribosome particle; experiment: ITC, 30 °C as the table's head says, E. coli ribosome
[9] = molecular target: T2, E. coli 70S ribosome particle; experiment: ITC, E. coli ribosome (70S)
[10] = molecular target: T2, E. coli 70S ribosome particle; experiment: ITC, 30 °C, against Py on the 70S ribosome
[11] = molecular target: T2, E. coli 70S ribosome particle; experiment: ITC, 30 °C, peptide titrated into E. coli 70S ribosome; values not well defined (footnote *)

Binder | -TΔS [1] [kcal/mol] | Kd [1] [nM] | ΔG [1] [kcal/mol] | ΔH [1] [kcal/mol] | -TΔS [2] [kcal/mol] | Kd [2] [nM] | ΔG [2] [kcal/mol] | ΔH [2] [kcal/mol] | Kd [6] [nM] | n [6] | ΔG [6] [kcal/mol] | ΔH [6] [kcal/mol] | binding result [7] | -TΔS [11] [kcal/mol] | ΔG [11] [kcal/mol] | ΔH [11] [kcal/mol] | other results
B1 | 4.3 | 119 | -9.61 | -13.9 | 12 | 37 | -10.3 | -22.3 | – | – | – | – | – | – | – | – | fold higher affinity for the ribosome than for SC [3]: 3 fold
B2 | 4.71 | 332 | -9 | -13.7 | – | – | – | – | 170 | 0.9 | -9.2 | -15.4 | – | – | – | – | binding result [4]: no binding; Kd [5]: 408 nM; n [5]: 1; ΔH [5]: -12.1 kcal/mol
B3 | – | – | – | – | – | – | – | – | 258 | 1 | -9 | -10.7 | – | – | – | – | –
B4 | – | – | – | – | 14 | 84 | -9.82 | -23.9 | – | – | – | – | no binding | – | – | – | Kd [8]: 241 nM; ΔG [8]: -9.2 kcal/mol; ΔH [8]: -16.2 kcal/mol; Kd [9]: 241 nM; n [9]: 1; ΔG [9]: -9.2 kcal/mol; ΔH [9]: -16.2 kcal/mol; fold lower affinity than Py [10]: 5 fold
B5 | 4.2 | 205 | -9.28 | -13.5 | 15.7 | 70.4 | -9.92 | -25.6 | 180 | 0.9 | -9.2 | -14.6 | – | – | – | – | fold higher affinity for the ribosome than for SC [3]: 3 fold
B6 | – | – | – | – | – | – | – | – | – | – | – | – | no binding | 13.3 | -6.91 | -20.1 | –
B7 | – | – | – | – | – | – | – | – | – | – | – | – | no binding | 2.94 | -5.98 | -8.92 | –
B8 | – | – | – | – | 3.12 | 101 | -9.85 | -13 | – | – | – | – | no binding | – | – | – | –
B9 | – | – | – | – | 8.23 | 15.5 | -10.9 | -19.2 | – | – | – | – | no binding | – | – | – | –
B10 | 8.21 | 390 | -8.99 | -17.2 | – | – | – | – | – | – | – | – | – | 6.7 | -6.27 | -13 | –
